Data from PMC10802294 (bioRxiv, 2024).
Side chains are listed from the residue outwards. Ends that are not written are not given here. * marks the point of attachment. Biotin = O=C1N[C@H]2[C@H](CS[C@H]2CCCCC(=O)*)N1; RADP = not defined here; Aoa = not defined here

Legend:
[1] = biological target: MERS-CoV Mac1 protein (WT) (MERS-CoV, UniProt K9N638 1110-1273); experiment: AlphaScreen or HTRF
[2] = biological target: SARS-CoV-2 Mac1 protein (WT) (SARS-CoV-2, UniProt P0DTC1 1023-1197); experiment: AlphaScreen or HTRF

MERS-CoV Mac1 protein (WT), sequence (K9N638 1110-1273): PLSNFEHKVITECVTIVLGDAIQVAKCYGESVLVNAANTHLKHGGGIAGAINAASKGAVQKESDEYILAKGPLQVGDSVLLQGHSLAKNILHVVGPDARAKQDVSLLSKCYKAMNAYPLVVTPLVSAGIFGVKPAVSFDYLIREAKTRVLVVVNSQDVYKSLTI

B1: 10 amino acid biotinylated and ADP-ribosylated peptide [ARTK(Bio)QTARK(Aoa-RADP)S] (peptide)
peptide: ARTK(Biotin)QTARK([Aoa-RADP])S
modifications: reading uncertain
[1]
  binding result: binds
[2]
  binding result: binds
